The record followed here is patent US20260049115A1.

The target of this assay is CCR5 on ThP1 human monocytes (human) (UniProt P51681).
CCR5 on ThP1 human monocytes (human), sequence (P51681 whole entry): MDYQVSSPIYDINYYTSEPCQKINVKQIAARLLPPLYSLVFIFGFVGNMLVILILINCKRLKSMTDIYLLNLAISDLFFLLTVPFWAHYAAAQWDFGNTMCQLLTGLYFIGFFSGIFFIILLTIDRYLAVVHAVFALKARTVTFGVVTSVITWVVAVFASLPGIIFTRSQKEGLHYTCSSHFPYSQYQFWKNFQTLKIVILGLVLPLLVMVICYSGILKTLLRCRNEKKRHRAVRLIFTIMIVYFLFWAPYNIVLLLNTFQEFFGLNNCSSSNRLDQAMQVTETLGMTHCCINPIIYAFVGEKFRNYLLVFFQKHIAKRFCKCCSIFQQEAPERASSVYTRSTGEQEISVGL

With “native form murine CCL4 (from UniProt P14097 24-92) (ligand)”, the EC50, calcium flux (RFU) in ThP1 monocytes [panel D] stood at 6.3 nM.
